Experimental data: patent US11479601B2, “Antibodies specific to Sonic Hedgehog and method of use thereof” (The Regents of the University of California, priority 2016, dated 2022)

Experiments:
[1] = tested on: A549-derived NSCLC xenografts; test: Antitumor efficacy in NSCLC A549 xenograft model (8 mg/kg); assay type: in vivo, mice; settings: 3 times a week for 3 weeks, versus control IgG
Procedure: 7-week old female nude mice (Jackson Laboratories) were injected with 10×10^6 NSCLC A549 cells in 50% matrigel in the flank region. […] 8 mg/kg therapeutic or control antibodies were administered three times a week for approximately 3 weeks. Tumor volumes were calculated using the formula (V=L×W^2) with recorded caliper measurements. At the end point, tumors were harvested, weighed and imaged. All animal procedures were performed under IACUC-approved protocols and guidelines.

[2] = molecular target: T1, cell-surface Sonic Hedgehog on A549 cells (Homo sapiens, UniProt Q15465); test: FACS of non-permeabilized A549 cells labeled with anti-Shh antibodies; assay type: binding; settings: A549, without membrane permeabilization
T1 construct: recognize cell-surface expression of Sonic Hedgehog, A549 cells were labeled with in-house antibodies; endogenous in cells; host or cells: A549
Procedure: (§1) A549, 293T or 293T (+pCMV Shh) cells were labeled with Sonic Hedgehog (Shh) antibody (Abcam 53281, 1:100) or therapeutic test antibodies (1:100) for 1 hour at RT post serum blocking. Following two PBS washes, a FITC-conjugated secondary antibody (Abcam 97029, 1:100) or an Alexa-Fluor 647 (Invitrogen, 1:1000) was used to label cells. Samples were screened by flow cytometry using an Accuri™ C6 machine (BD Biosciences). For fluorescence activated cell sorting, samples were sorted using an S3e™ Cell Sorter (Bio-Rad) and the Shh+ population was collected. For all experiments, cells processed without primary antibody served as a negative control. Experiments were performed in duplicates or triplicates.
To corroborate that the two anti-Shh antibodies, 1C11-2G4 and 1C11-2D9, recognize cell-surface expression of Sonic Hedgehog, A549 cells were labeled with in-house antibodies and sorted via Fluorescence Activated Cell Sorting (FACS) without membrane permeabilization. […] BMC Cancer. 15:84 (2015); Singh S, Trevino J, Bora-Singhal N, Coppola D, Haura E, Altiok S, Chellappan S P. EGFR/Src/Akt signaling modulates Sox2 expression and self-renewal of stem-like side-population cells in non-small cell lung cancer. Mol Cancer. 11:73 (2012); Cochrane C R, Szczepny A, Watkins D N, Cain J E. Hedgehog Signaling in the Maintenance of Cancer Stem Cells. Cancers (Basel). […]

[3] = tested on: NSCLC A549 cells; test: CellTiter-Glo cell viability assay, A549; assay type: cell-based, human; settings: 96 hours, compared with controls
Procedure: (§2) Logarithmically growing cells were plated in antibiotic-free medium supplemented with 2% fetal bovine serum at a density of 5,000 cells per well in clear-bottom 96-well plates. The next day cells were treated (triplicates) with increasing doses of in-house therapeutic antibodies (reconstituted in PBS) or PBS controls for 96 hours and subsequently assessed for cell viability by measuring ATP content with CellTiter-Glo Luminescent Cell Viability Assay (Promega). Signal intensity was measured on a Glomax™ 96 Microplate Luminometer (Promega) and percent cell survival was calculated based on the reading of PBS control cells set as 100%.

[4] = tested on: other lung and pancreatic cancer cell lines; test: CellTiter-Glo cell viability assay, other cancer cell lines; assay type: cell-based; settings: 96 hours
Procedure: as §2

[5] = molecular target: T2, Shh in A549 cells (Homo sapiens, UniProt Q15465); test: Flow cytometry of purified antibodies on A549 cells (vector control or pCMV-Shh); assay type: binding
T2 construct: 1) 293T (endogenous Shh), 2) 293T (bearing exogenously transfected Shh) and 3) A549 (Shh-expressing); endogenous in cells; host or cells: 293T and A549 (endogenous); also 293T and A549 transiently transfected with pCMV-Shh (Origene)
Procedure: as §1
For the purpose of selecting the best C-term Shh antibodies from over 50 hybridoma clones, two sets of screening assays were designed. First, the same Shh C-term peptides (AA 247-264 and 448-462, KLH-free version) used to mount an immune response in mice was employed in an ELISA-based assay with supernatants from antibody-producing hybridoma clonal cells. […] To confirm specific recognition, A549 (+vector control) cells and A549 cells transfected with exogenous Shh were labeled with 2G4 and 2D9 and assessed via flow cytometry. […] Finally, the Kd values of both antibodies with recombinant full-length Shh were calculated and nanomolar binding affinities were observed (FIG. 48C).

B1: 2G4: purified mouse monoclonal C-terminal Shh antibody from hybridoma sub-clone 2G4 of clone 1C11, IgG1 kappa (antibody, V domains shown)
VH: EVKLVESGGGLVKPGGSLKLSCAASGFTFSSYTMSWVRQTPAKRLEWVATISSGGGNTYYPDSVKGRFTISRDNARNTLYLQMSSLRSEDTAMYYCARDYRSLFAYWGQGTLVTVSA
VL: QIVLTQSPAIMSASPGEKVTITCSASSSVSYMHWFQQKPGTSPKLWIYSTSNLASGVPARFSGSGSGTSYSLTISRMEAEDAATYYCQQRSSYPFTFGSGTKLEIK
tumor volume [1]: significant reduction in tumor volume
tumor weight of harvested tumors [1]: decrease in tumor weight
Shh+ cells recognized from a mixed population (FACS) [2]: 0.11%
A549 tumor cell proliferation / cell viability [3]: marginally stronger anti-proliferative capacity
growth of other lung and pancreatic cancer cell lines [4]: inhibited the growth
endogenous Shh recognized (flow cytometry) ([5]; A549 (+vector control)): 0.5%
exogenous Shh recognized (flow cytometry) ([5]; A549 cells transfected with exogenous Shh): 6%
